From publication PMC11969024 (2025)

B1: peptide HD2 (from tick evasin EVA4) / CCL8 (biotinylated, synthetic) (parent complex)
chain 1: EEDDYTAYAPLTCYFT
chain 2: QPDSVSIPITCCFNVINRKIPIQRLESYTRITNIQCPKEAVIFKTKRGKEVCADPKERWVRDSMKHLDQIFQNLKP
B2: peptide HD2 (from tick evasin EVA4) / CCL17 (biotinylated, synthetic) (parent complex)
chain 1: EEDDYTAYAPLTCYFT
chain 2: ARGTNVGRECCLEYFKGAIPLRKLKTWYQTSEDCSRDAIVFVTVQGRAICSDPNNKRVKNAVKYLQSLERS

Variants of: B1
In the case of chain 1 T6S, the enrichment is reported as 2.06 log2 (difference from the parental peptide). For chain 1 D3L, the enrichment was -2.94 log2 (difference from the parental peptide). chain 1 T12I was tested, and the enrichment was -0.26 log2 (difference from the parental peptide). With chain 1 L11M the enrichment was 2.26 log2 (difference from the parental peptide). chain 1 A9I was tested, and the enrichment was -5.81 log2 (difference from the parental peptide). For chain 1 A9E, the enrichment was 1.36 log2 (difference from the parental peptide). For chain 1 Y14Q, the enrichment was 0.652 log2 (difference from the parental peptide). chain 1 T16Y was tested, and the enrichment was -0.142 log2 (difference from the parental peptide). With chain 1 P10Y the enrichment was -6.5 log2 (difference from the parental peptide). For chain 1 E1V, the enrichment was -0.973 log2 (difference from the parental peptide). For chain 1 Y5A, the enrichment was -6.59 log2 (difference from the parental peptide). In the case of chain 1 P10A, the enrichment is reported as -8.23 log2 (difference from the parental peptide). With chain 1 Y8F the enrichment was 1.24 log2 (difference from the parental peptide). chain 1 Y14D was tested, and the enrichment was -0.707 log2 (difference from the parental peptide). For chain 1 T16G, the enrichment was 1.07 log2 (difference from the parental peptide). chain 1 D3A was tested, and the enrichment was -1.64 log2 (difference from the parental peptide). In the case of chain 1 C13Q, the enrichment is reported as -1.97 log2 (difference from the parental peptide). For chain 1 D4L, the enrichment was -3.87 log2 (difference from the parental peptide). With chain 1 A7M the enrichment was 1.51 log2 (difference from the parental peptide). With chain 1 A7P the enrichment was 0.181 log2 (difference from the parental peptide). In the case of chain 1 D3P, the enrichment is reported as -2.64 log2 (difference from the parental peptide). chain 1 T6A was tested, and the enrichment was 1.59 log2 (difference from the parental peptide). For chain 1 P10G, the enrichment was -9.74 log2 (difference from the parental peptide). For chain 1 T16W, the enrichment was -0.46 log2 (difference from the parental peptide). With chain 1 E1L the enrichment was -1.2 log2 (difference from the parental peptide). For chain 1 C13D, the enrichment was -4.59 log2 (difference from the parental peptide). In the case of chain 1 D3Y, the enrichment is reported as -2.62 log2 (difference from the parental peptide). chain 1 A9D was tested, and the enrichment was -7.75 log2 (difference from the parental peptide). With chain 1 Y8H the enrichment was -4.28 log2 (difference from the parental peptide). In the case of chain 1 T12M, the enrichment is reported as -0.433 log2 (difference from the parental peptide). With chain 1 D3I the enrichment was -3.47 log2 (difference from the parental peptide). With chain 1 E2D the enrichment was 1.04 log2 (difference from the parental peptide). For chain 1 Y8S, the enrichment was -4.18 log2 (difference from the parental peptide). With chain 1 F15H the enrichment was 2.19 log2 (difference from the parental peptide). With chain 1 Y14S the enrichment was -0.238 log2 (difference from the parental peptide). chain 1 E2V was tested, and the enrichment was -1.43 log2 (difference from the parental peptide). For chain 1 D4H, the enrichment was -4.48 log2 (difference from the parental peptide). For chain 1 E2H, the enrichment was -2.03 log2 (difference from the parental peptide). In the case of chain 1 L11S, the enrichment is reported as 1.65 log2 (difference from the parental peptide). For chain 1 Y8N, the enrichment was -4.48 log2 (difference from the parental peptide). For chain 1 C13V, the enrichment was 0.0797 log2 (difference from the parental peptide). chain 1 D4F was tested, and the enrichment was -4.31 log2 (difference from the parental peptide). In the case of chain 1 T6M, the enrichment is reported as -0.0579 log2 (difference from the parental peptide). For chain 1 D3M, the enrichment was -3.45 log2 (difference from the parental peptide). For chain 1 P10Q, the enrichment was -5.91 log2 (difference from the parental peptide). For chain 1 E1G, the enrichment was -0.383 log2 (difference from the parental peptide). In the case of chain 1 D3C, the enrichment is reported as -7.83 log2 (difference from the parental peptide). For chain 1 E2L, the enrichment was -1.7 log2 (difference from the parental peptide). In the case of chain 1 E1C, the enrichment is reported as -8.27 log2 (difference from the parental peptide). chain 1 D4C was tested, and the enrichment was -7.17 log2 (difference from the parental peptide). chain 1 D4V was tested, and the enrichment was -3.88 log2 (difference from the parental peptide). In the case of chain 1 D3Q, the enrichment is reported as -2.92 log2 (difference from the parental peptide). In the case of chain 1 C13R, the enrichment is reported as -3.1 log2 (difference from the parental peptide). In the case of chain 1 D4A, the enrichment is reported as -3.07 log2 (difference from the parental peptide). In the case of chain 1 Y14T, the enrichment is reported as 1.09 log2 (difference from the parental peptide). For chain 1 F15C, the enrichment was 0.0192 log2 (difference from the parental peptide). With chain 1 E1Y the enrichment was -0.879 log2 (difference from the parental peptide). chain 1 F15V was tested, and the enrichment was 2.21 log2 (difference from the parental peptide). In the case of chain 1 E2A, the enrichment is reported as -1.44 log2 (difference from the parental peptide). In the case of chain 1 Y8W, the enrichment is reported as 0.61 log2 (difference from the parental peptide). With chain 1 T16N the enrichment was 0.543 log2 (difference from the parental peptide). chain 1 Y5G was tested, and the enrichment was -5.04 log2 (difference from the parental peptide). For chain 1 Y8A, the enrichment was -1.36 log2 (difference from the parental peptide). chain 1 Y14K was tested, and the enrichment was -1.21 log2 (difference from the parental peptide). In the case of chain 1 C13S, the enrichment is reported as -1.77 log2 (difference from the parental peptide). With chain 1 T6V the enrichment was -3.12 log2 (difference from the parental peptide). For chain 1 T6C, the enrichment was -9.06 log2 (difference from the parental peptide). With chain 1 A9W the enrichment was -5.37 log2 (difference from the parental peptide). chain 1 D4E was tested, and the enrichment was -0.292 log2 (difference from the parental peptide). With chain 1 F15Y the enrichment was 1.8 log2 (difference from the parental peptide). chain 1 C13T was tested, and the enrichment was -0.813 log2 (difference from the parental peptide). With chain 1 F15N the enrichment was 1.4 log2 (difference from the parental peptide). With chain 1 T12P the enrichment was -0.165 log2 (difference from the parental peptide). chain 1 Y5H was tested, and the enrichment was -5.84 log2 (difference from the parental peptide). With chain 1 D4K the enrichment was -6.39 log2 (difference from the parental peptide). In the case of chain 1 C13K, the enrichment is reported as -4.94 log2 (difference from the parental peptide). For chain 1 Y14V, the enrichment was 1.05 log2 (difference from the parental peptide). For chain 1 T16K, the enrichment was 1.41 log2 (difference from the parental peptide). With chain 1 Y5C the enrichment was -7.1 log2 (difference from the parental peptide). With chain 1 P10C the enrichment was -8.24 log2 (difference from the parental peptide). chain 1 E1A was tested, and the enrichment was -0.674 log2 (difference from the parental peptide). For chain 1 T16C, the enrichment was -2.39 log2 (difference from the parental peptide). For chain 1 P10L, the enrichment was -8.02 log2 (difference from the parental peptide). chain 1 L11F was tested, and the enrichment was -0.0302 log2 (difference from the parental peptide). For chain 1 A7K, the enrichment was 0.582 log2 (difference from the parental peptide). chain 1 L11N was tested, and the enrichment was 0.274 log2 (difference from the parental peptide). chain 1 Y14E was tested, and the enrichment was -0.645 log2 (difference from the parental peptide). In the case of chain 1 A7I, the enrichment is reported as 0.0548 log2 (difference from the parental peptide). In the case of chain 1 A9R, the enrichment is reported as -0.86 log2 (difference from the parental peptide). chain 1 A7D was tested, and the enrichment was 2.55 log2 (difference from the parental peptide). In the case of chain 1 L11H, the enrichment is reported as 1.86 log2 (difference from the parental peptide). chain 1 E1Q was tested, and the enrichment was -0.418 log2 (difference from the parental peptide). chain 1 E2S was tested, and the enrichment was -1.97 log2 (difference from the parental peptide). chain 1 Y5M was tested, and the enrichment was -0.636 log2 (difference from the parental peptide). For chain 1 T6N, the enrichment was 0.795 log2 (difference from the parental peptide). chain 1 Y5L was tested, and the enrichment was -0.265 log2 (difference from the parental peptide). For chain 1 L11W, the enrichment was -0.601 log2 (difference from the parental peptide). With chain 1 D4S the enrichment was -2.5 log2 (difference from the parental peptide). With chain 1 C13W the enrichment was -1.28 log2 (difference from the parental peptide). For chain 1 C13N, the enrichment was -3.72 log2 (difference from the parental peptide). For chain 1 T6Q, the enrichment was 1.13 log2 (difference from the parental peptide). For chain 1 T12A, the enrichment was -0.122 log2 (difference from the parental peptide). In the case of chain 1 C13H, the enrichment is reported as -2.17 log2 (difference from the parental peptide). In the case of chain 1 F15P, the enrichment is reported as 2.45 log2 (difference from the parental peptide). For chain 1 P10D, the enrichment was -7.93 log2 (difference from the parental peptide). With chain 1 D4R the enrichment was -6.61 log2 (difference from the parental peptide). For chain 1 A7E, the enrichment was 2.43 log2 (difference from the parental peptide). With chain 1 A7S the enrichment was 0.947 log2 (difference from the parental peptide). In the case of chain 1 Y14R, the enrichment is reported as -0.632 log2 (difference from the parental peptide). With chain 1 D3V the enrichment was -3.08 log2 (difference from the parental peptide). For chain 1 D3W, the enrichment was -2.86 log2 (difference from the parental peptide). chain 1 L11E was tested, and the enrichment was 0.712 log2 (difference from the parental peptide). For chain 1 D4P, the enrichment was -4.27 log2 (difference from the parental peptide). chain 1 D4G was tested, and the enrichment was -2.42 log2 (difference from the parental peptide). With chain 1 T12D the enrichment was -1.11 log2 (difference from the parental peptide). For chain 1 A9N, the enrichment was -3.86 log2 (difference from the parental peptide). For chain 1 D4N, the enrichment was -2.35 log2 (difference from the parental peptide). For chain 1 E2P, the enrichment was -2.32 log2 (difference from the parental peptide). chain 1 D3F was tested, and the enrichment was -2.94 log2 (difference from the parental peptide). In the case of chain 1 Y5S, the enrichment is reported as -5.16 log2 (difference from the parental peptide). chain 1 F15W was tested, and the enrichment was 0.273 log2 (difference from the parental peptide). For chain 1 P10R, the enrichment was -7.6 log2 (difference from the parental peptide). chain 1 Y8D was tested, and the enrichment was -7.06 log2 (difference from the parental peptide). In the case of chain 1 T12H, the enrichment is reported as -0.0146 log2 (difference from the parental peptide). With chain 1 E2T the enrichment was -1.89 log2 (difference from the parental peptide). For chain 1 E1R, the enrichment was -2.91 log2 (difference from the parental peptide). With chain 1 T6I the enrichment was -5.53 log2 (difference from the parental peptide).

Variants of: B2
For chain 1 EEDDYPAYAPLTCYFT [chain 1 T6P], the enrichment was -4.51 log2 (difference from the parental peptide). For chain 1 EKDDYTAYAPLTCYFT [chain 1 E2K], the enrichment was -0.857 log2 (difference from the parental peptide). With chain 1 EEDDYTAYAPLTCYRT [chain 1 F15R] the enrichment was 0.0833 log2 (difference from the parental peptide). For chain 1 DEDDYTAYAPLTCYFT [chain 1 E1D], the enrichment was 2.62 log2 (difference from the parental peptide). chain 1 EEDRYTAYAPLTCYFT [chain 1 D4R] was tested, and the enrichment was -4.61 log2 (difference from the parental peptide). With chain 1 EEDPYTAYAPLTCYFT [chain 1 D4P] the enrichment was -2.13 log2 (difference from the parental peptide). In the case of chain 1 EEDDYTAYAPLSCYFT [chain 1 T12S], the enrichment is reported as -3.76 log2 (difference from the parental peptide). chain 1 EEDDYHAYAPLTCYFT [chain 1 T6H] was tested, and the enrichment was 0.317 log2 (difference from the parental peptide). chain 1 EEDDYVAYAPLTCYFT [chain 1 T6V] was tested, and the enrichment was -4.25 log2 (difference from the parental peptide). chain 1 EEDDYTAYAPLTCYAT [chain 1 F15A] was tested, and the enrichment was 0.597 log2 (difference from the parental peptide). For chain 1 EEDDYTAYAPLTNYFT [chain 1 C13N], the enrichment was -8.31 log2 (difference from the parental peptide). With chain 1 EEDDYTMYAPLTCYFT [chain 1 A7M] the enrichment was 1.3 log2 (difference from the parental peptide). With chain 1 EEDDYAAYAPLTCYFT [chain 1 T6A] the enrichment was 1.8 log2 (difference from the parental peptide). In the case of chain 1 EEDDYTAYAPLTCLFT [chain 1 Y14L], the enrichment is reported as -4.61 log2 (difference from the parental peptide). In the case of chain 1 EEDDYTAYAPLTSYFT [chain 1 C13S], the enrichment is reported as -8.83 log2 (difference from the parental peptide). chain 1 EEDDYTAYEPLTCYFT [chain 1 A9E] was tested, and the enrichment was -1.38 log2 (difference from the parental peptide). With chain 1 EEDDYTAYAPLPCYFT [chain 1 T12P] the enrichment was -4.02 log2 (difference from the parental peptide). chain 1 EEDDYTAYAPLKCYFT [chain 1 T12K] was tested, and the enrichment was -2.78 log2 (difference from the parental peptide).
